Reference: article PMC3001049
Residue numbers refer to the chain shown, from its start. Like-named read-outs stand apart in the source and are kept apart here.

B1: damaged duplex Fg/4 (dsDNA)
DNA 1: GTCGTTCGGAAGACCCTGACGTTGCCCAACTTAATCGCCTCGCCATAG
DNA 2: CTATGGCGAGGCGATTAAGTTGGGCAACGTCAGGGTCTTCCGAACGAC
modifications: strand 1 T23 = Flu-dUMP; strand 2 T30 = 5-iodo-dUMP
B2: damaged duplex FI3/N (dsDNA)
DNA 1: B1 DNA 1 with G24A
DNA 2: B1 DNA 2 with C25T
modifications: strand 1 T17 = 5-iodo-dUMP, T22 = Flu-dUMP

How the values were obtained:
XPA [1] = molecular target: T1, XPA (human, UniProt P23025 1-273); assay: photocrosslinking
T1 sequence (P23025 whole entry): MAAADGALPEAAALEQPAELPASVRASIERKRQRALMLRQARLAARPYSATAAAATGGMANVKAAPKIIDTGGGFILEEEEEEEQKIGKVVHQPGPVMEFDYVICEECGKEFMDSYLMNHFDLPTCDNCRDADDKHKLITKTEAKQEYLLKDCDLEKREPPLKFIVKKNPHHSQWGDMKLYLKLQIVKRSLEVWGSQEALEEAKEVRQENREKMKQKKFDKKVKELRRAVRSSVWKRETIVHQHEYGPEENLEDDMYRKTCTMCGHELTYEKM

XPA [2] = molecular target: T1, XPA; assay: photocrosslinking; remark: listed apart in the source

| Binder | binding result (XPA [1]) | binding result (XPA [2]) |
| --- | --- | --- |
| B1 | binds | – |
| B2 | – | binds |
